Experimental findings from patent US20210253998A1 (published 2021) are described below.

In experiment [1] the target is T1, Mbd2 (endogenous, mouse ESCs) (mouse, UniProt Q9Z2E1 1-414, limits assumed). Briefly: co-IP with flag beads from ESCs carrying a Flag-tagged Mbd3 transgene, western blot. The text has this: FIG. 61A—The present inventors established an ESC line carrying recovery of Flag-tagged Mbd3 transgene inserted in Mbd3^{-/-} ESC line. […] Moreover, Mbd3 interacts with Sall4 pluripotency reprogramming factor in ESCs. […] These assays recapitulate observation in many other cell lines where Mbd2 and Mbd3 form mutually exclusive complexes (Le Guezennec, X. et al. Mol. Cell. Biol. 26, 843-851, 2006; Aguilera, C. et al. Nature 469, 231-235, 2011).

Experiment [2] concerns the target T1, Mbd2 (endogenous, mouse ESCs). The experiment can be described thus: pull down of Mbd2 from a control ESC line, western blot. (In western blotting, separated proteins are transferred to a membrane and probed.)
Experiment [3] has as its target T2, Mta2 (endogenous, mouse cells) (mouse, UniProt Q9R190 1-668).
T2 sequence (looked up): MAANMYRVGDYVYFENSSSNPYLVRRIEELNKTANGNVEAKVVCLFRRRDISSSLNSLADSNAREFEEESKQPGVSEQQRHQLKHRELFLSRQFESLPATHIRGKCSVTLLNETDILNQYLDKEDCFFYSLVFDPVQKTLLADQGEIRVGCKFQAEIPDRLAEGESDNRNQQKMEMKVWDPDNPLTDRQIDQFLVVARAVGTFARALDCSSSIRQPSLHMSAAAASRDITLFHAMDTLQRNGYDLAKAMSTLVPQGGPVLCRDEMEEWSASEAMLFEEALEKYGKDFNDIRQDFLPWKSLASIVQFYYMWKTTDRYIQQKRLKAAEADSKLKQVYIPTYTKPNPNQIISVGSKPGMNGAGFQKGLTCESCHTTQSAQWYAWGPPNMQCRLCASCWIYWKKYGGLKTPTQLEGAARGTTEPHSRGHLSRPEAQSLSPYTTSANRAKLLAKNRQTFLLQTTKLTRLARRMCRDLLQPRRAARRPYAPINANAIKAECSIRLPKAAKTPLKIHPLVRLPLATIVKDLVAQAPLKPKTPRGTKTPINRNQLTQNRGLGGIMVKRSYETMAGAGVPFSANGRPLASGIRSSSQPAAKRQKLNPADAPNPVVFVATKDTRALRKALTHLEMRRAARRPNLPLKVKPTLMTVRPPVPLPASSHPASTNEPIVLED
The experiment can be described thus: co-IP from a control ESC line, western blot.

T1 sequence (Q9Z2E1 whole entry): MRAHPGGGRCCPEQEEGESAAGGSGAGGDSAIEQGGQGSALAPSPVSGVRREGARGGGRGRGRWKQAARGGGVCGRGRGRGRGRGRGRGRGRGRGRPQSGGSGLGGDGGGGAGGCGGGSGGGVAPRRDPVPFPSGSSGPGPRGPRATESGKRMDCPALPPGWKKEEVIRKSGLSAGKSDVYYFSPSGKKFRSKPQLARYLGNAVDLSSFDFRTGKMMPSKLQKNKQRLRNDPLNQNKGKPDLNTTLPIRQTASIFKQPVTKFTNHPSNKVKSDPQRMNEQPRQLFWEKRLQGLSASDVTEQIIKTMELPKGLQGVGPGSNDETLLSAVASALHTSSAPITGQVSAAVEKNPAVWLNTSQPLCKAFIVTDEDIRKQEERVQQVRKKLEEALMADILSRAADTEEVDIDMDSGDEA

B1: Flag-tagged Mbd3 (other)
chain: MERKRWECPALPQGWEREEVPRRSGLSAGHRDVFYYSPSGKKFRSKPQLARYLGGSMDLSTFDFRTGKMLMSKMNKSRQRVRYDSSNQVKGKPDLNTALPVRQTASIFKQPVTKITNHPSNKVKSDPQKAVDQPRQLFWEKKLSGLNAFDIAEELVKTMDLPKGLQGVGPGCTDETLLSAIASALHTSTMPITGQLSAAVEKNPGVWLNTTQPLCKAFMVTDEDIRKQEELVQQVRKRLEEALMADMLAHVEELARDGEAPLDKACAEDDDEEDEEEEEEEPDPDPEMEHV
notes: also called pCaggs-Flag-Mbd3; Flag-tagged Mbd3 transgene; not shown: Flag tag
Take B1: in experiment [1], the binding result is “no binding”.

B2: Mbd3 (endogenous, mouse cells) (other, UniProt Q9Z2D8 1-285, looked up)
chain: MERKRWECPALPQGWEREEVPRRSGLSAGHRDVFYYSPSGKKFRSKPQLARYLGGSMDLSTFDFRTGKMLMNKMNKSRQRVRYDSSNQVKGKPDLNTALPVRQTASIFKQPVTKITNHPSNKVKSDPQKAVDQPRQLFWEKKLSGLSAFDIAEELVRTMDLPKGLQGVGPGCTDETLLSAIASALHTSTLPITGQLSAAVEKNPGVWLNTAQPLCKAFMVTDDDIRKQEELVQQVRKRLEEALMADMLAHVEELARDGEAPLDKACAEEEEEEEEEEEEPEPERV
Consider B2, for which the results for the binding result in experiment [2] and in experiment [3] were “no binding” and “binds”, respectively.
